From article PMC9473612

Target: EB1-mScarlet (UniProt Q9XZ57)
Assay: co-immunoprecipitation (mNeongreen-trap) with immunoblot quantification
Settings: S2 cells overexpressing the constructs; n = 3 independent replicates; parent: est. 100; read off a plot

UniProt Q9XZ57, sequence (Q9XZ57 entry or part of it): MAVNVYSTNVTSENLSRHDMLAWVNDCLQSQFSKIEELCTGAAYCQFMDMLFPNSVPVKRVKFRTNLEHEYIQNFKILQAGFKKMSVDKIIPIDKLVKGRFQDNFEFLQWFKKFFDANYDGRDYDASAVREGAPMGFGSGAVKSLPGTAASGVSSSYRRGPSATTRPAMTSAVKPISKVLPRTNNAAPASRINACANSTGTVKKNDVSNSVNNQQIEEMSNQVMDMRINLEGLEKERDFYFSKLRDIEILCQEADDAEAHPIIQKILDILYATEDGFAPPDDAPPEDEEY

**Q.** Which percent of parent (% relative to WT) does the source give for “mNeongreen RhoGEF2 (1–619), wild type SKIP→SKNN (I→N; P→N in the SxIP motif; residue numbers not printed)” here?
**A.** Its percent of parent (% relative to WT) is 78.

**Q.** “mNeongreen RhoGEF2 (1–619), wild type 7A (seven serines proximal to the SKIP motif changed to A; residue numbers not printed)” was tested. Which percent of parent (% relative to WT) did it give?
**A.** The percent of parent (% relative to WT) was 76.

**Q.** With “mNeongreen RhoGEF2 (1–619), wild type 7E (seven serines proximal to the SKIP motif changed to E; residue numbers not printed)” as the substance, how does the percent of parent (% relative to WT) read?
**A.** The percent of parent (% relative to WT) was 56.
